In article doi:10.1101/2020.10.20.346569 (bioRxiv, 2020):
Like-named read-outs stand apart in the source and are kept apart here.

Tests used:
[1] = target: T1, GST-GSK3β (UniProt P49841 1-420); assay: pull-down
[2] = target: T1, GST-GSK3β; assay: pull-down; remark: listed apart in the source

T1 sequence (P49841 whole entry): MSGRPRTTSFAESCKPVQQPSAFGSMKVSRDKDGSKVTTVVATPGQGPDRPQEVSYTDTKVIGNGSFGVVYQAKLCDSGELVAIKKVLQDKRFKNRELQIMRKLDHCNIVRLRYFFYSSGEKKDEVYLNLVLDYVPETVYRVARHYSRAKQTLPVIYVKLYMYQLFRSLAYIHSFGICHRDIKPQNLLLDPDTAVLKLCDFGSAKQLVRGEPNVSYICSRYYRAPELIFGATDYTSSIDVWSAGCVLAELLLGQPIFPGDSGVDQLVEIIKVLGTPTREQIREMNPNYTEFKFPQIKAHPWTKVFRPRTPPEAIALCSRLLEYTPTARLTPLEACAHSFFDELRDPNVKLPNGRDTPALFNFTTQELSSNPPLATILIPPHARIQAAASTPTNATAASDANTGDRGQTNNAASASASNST

RLLFQNLWKPRL [peptide e2-I]
binding result [1]: binds

B1: His-eIF4E2 (natural protein, UniProt O60573 1-245, looked up)
chain: MNNKFDALKDDDSGDHDQNEENSTQKDGEKEKTERDKNQSSSKRKAVVPGPAEHPLQYNYTFWYSRRTPGRPTSSQSYEQNIKQIGTFASVEQFWRFYSHMVRPGDLTGHSDFHLFKEGIKPMWEDDANKNGGKWIIRLRKGLASRCWENLILAMLGEQFMVGEEICGAVVSVRFQEDIISIWNKTASDQATTARIRDTLRRVLNLPPNTIMEYKTHTDSIKMPGRLGPQRLLFQNLWKPRLNVP
binding result [2]: binds
